Experimental data reported in PMC8828469.
Several values for one entry are separate records, joined by “and”; a condition that tells them apart may be missing. Equal entries are not always repeated.

Molecular target: hamster ACE2 ectodomain with human IgG1 Fc tag (hamster)
Assay: BLI

SARS-CoV-2 spike protein of Alpha (B.1.1.7), S^Alpha, recombinant trimeric ectodomain (from UniProt P0DTC2 14-1208) (domain or fragment)
kon: 111000 M⁻¹ s⁻¹ and 90700 M⁻¹ s⁻¹ and 98000 M⁻¹ s⁻¹
